B1: library; numbered along this chain (parent)
chain: MAAAAAAAAEQQSSNGPVKKSMREKAVERRSVNKEHNSNFKAGYIPIDEDRLHKTGLRGRKGNLAICVIILLFILAVINLIITLVIWAVIRIGPNGCDSMEFHESGLLRFKQVSDMGVIHPLYKSTVGGRRNENLVITGNNQPIVFQQGTTKLSVENNKTSITSDIGMQFFDPRTQNILFSTDYETHEFHLPSGVKSLNVQKASTERITSNATSDLNIKVDGRAIVRGNEGVFIMGKTIEFHMGGNMELKAENSIILNGSVMVSTTRLPSSSSGDQLGSGDWVRYKLCMCADGTLFKVQVTSQNMGCQISDNPCGNTH

Variants of: B1
Assay: SGCB cell-surface expression functional score (HA stain, bin4 vs bin1, normalised to synonymous) (log10 ratio); higher = more cell-surface SGCB (functional)
How it was run: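 HEK293 cells stably expressing alpha-, gamma- and delta-sarcoglycan received codon-saturation libraries of HA-tagged, YFP-fused human beta-sarcoglycan by lentiviral transduction at MOI <0.1, performed in duplicate. Cells positive for YFP were sorted after 72 hours and cultured for 5–7 days, then stained on ice with Alexa Fluor 647 anti-HA and fixed. Fixed cells were sorted into four 5% intensity bins and amplicon-sequenced, and the log ratio of highest-bin to lowest-bin variant frequency, as a median over codons and transductions, gives the functional score. Per section, synonymous variants were scaled to mean 0, SD 0.5.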

SGCB cell-surface expression functional score (log10): each site, then its substitutions
S193: K 0.33 | N 0.79 | L 0.22 | T -0.16 | G 0.24 | V 0.52 | W -1.15 | F 0.83 | Y -0.19 | A 0.18 | M -0.52 | C 0.3 | P -0.22 | I 0.78 | R 0.17 | H 1.59 | E 1.32
F180: Y -1.77 | V -2.01
D183: R -0.21 | K -0.36 | W 0.54 | I -1.89 | F -1.63 | N -0.15 | M -0.83 | G -1.31 | L -0.71 | Q -0.56 | H -0.33 | A 1.15 | E 0.35 | P -1.43 | T -0.79 | V -0.86 | Y -0.53 | S -0.22 | C -1.17
L198: D -2.43 | P -1.18 | K -1.58 | F 0.25 | N -1.95 | I -0.47 | C -0.88 | E -2.32 | A -1.81 | M -0.81 | G -1.98 | H -0.37
P192: E -1.13 | S -0.21 | T -1.46 | I -2.12 | F -0.5 | Y -1.09 | Q -2.22 | H -1.15 | L -1.17 | M -1.22 | N -1.53 | K -1.31 | D -1.49 | G -0.57 | A -1.12 | R -1.04 | C -0.78 | W -1.19 | V -1.19
L191: G -1.07 | P -1.47 | R -1.37 | M 0.28 | H -1.37 | K -0.32 | C -0.5 | Q -1.1 | S -1.19 | N -2.28 | D -1.17 | T -1.31 | A -1.71 | Y -1.61 | E -1.09 | F -0.08 | V -0.49 | I -0.16 | W -0.06
Y184: A -0.95 | R -1.19 | G -1.39 | V -2.52 | P -0.93 | E -0.73 | L -1.63 | I -1.85 | D -0.8 | K -1.77 | M -1.01 | Q -0.78 | S -1.04 | T -1.17 | F 0.26 | C -0.8 | N -1.22 | H -0.69
F189: E -1.49 | W -1.38 | T -1.23 | A -0.91 | Q -1.04 | R -2.1 | C -1.67 | N -2.42 | Y -0.98 | V -1.22 | P -0.39 | S -1.1 | D -1.52 | H -1.03 | G -1.93 | L -0.46 | M -0.25 | K -2.58 | I -1.15
G194: K 0.01 | N 0.05 | D 0.64 | T -0.71 | I -1.66 | S 0.34 | A -0.67 | F -0.14 | R -0.07 | E -0.09 | P -0.58 | Q 0.38 | M -1.78 | V -1.31 | H 0.27 | L -1.02 | C -0.15 | Y -1.13 | W 0.23
S181: L -1.37 | V -1.52 | G -0.94 | R -0.87 | Q -1.57 | H -1.65 | C -0.89 | M 0.13 | I -1.25 | F -1.53 | K -1.64 | W -1.97 | N -1 | T -0.51 | P -1.69 | A 0.2 | D -0.41 | E -1.4 | Y -1.76
K196: V -0.07 | H 1.37 | Y -1.19 | Q 0.02
